Test: yeast display, Sf9 membrane polyspecificity reagent, FACS + sequencing; frameworks hold sequencing errors
Summary of the method: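 A nanobody's polyreactivity label depends on the gate it was sorted from. Yeast display cells were stained with 10% biotinylated, detergent-solubilized Sf9 membrane reagent for 1 hour at 4 °C, enriched on streptavidin microbeads and sorted by FACS. The low and high (top ~1%) gates were set on anti-HA fluorescence for expression and streptavidin fluorescence for reagent binding.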

| Sequence | polyreactivity (PSR sort gate) |
| --- | --- |
| QVQLVESGGGLVQAGGSLRLSCAASGNTFYGYARGWYRQAPGKERELVASITLSGDSTYYADSVKGRFTISRDNAKNTVYLPMNSLKPEDTAVYYCNADWYFQYPYDYWGQGTQVTVSS | low polyreactivity |
| QVQLVESGGGLVQAGGSLRLSCAASGSPFHRYVMGWYRQAPGKERELVAVINSTGGSTYYADSVKGRFTISRDHAKNTVDLQMNSLKPEDTAVYYCNAVRDWGPSQVYDGMDYWGQGTQVTVSS | low polyreactivity |
| QVQLVESGGGLVQAGGSLRLSCAASGFIIPYYAMGWYRQAPGKERELVAAISRSGGSTYYADSVKGRFTISRDNAKNTVYLQMHSLKPEDTAVYYCATRKGGTLYNYWGQGTQVTVSS | high polyreactivity |
| QVQLVESGGGLVQAGGSLRLSCAASGSTFQRYAMGWYRQAPGKERELVAAITWSGGSTYYADSVKGRFTISRDNAKNTGYLQMNSLKPEDTAVYYGAARSVRYGFGYWGQGTQVTVSS | high polyreactivity |
| QVQLVESGGGLVQAGGSLRLSCAASGRTFVKNAMGWYRQAPGKERELVAAISSSGGSTYYADSVKGRFTISRDNAKNTVYLQMNSLKPEDTAVYYCNRYSRLYLTDDDYWGQGTQVTVSS | high polyreactivity |
| QVQLVESGGGLVQAGGSLRLSCAASVNIFQSYTMGWYRQAPGKERELVARITARGGRTYYADSVQGRFTISRDNANNTVYLQMNSLKPEDTAFYYCAAQHRGPYGVDYWGQGTQVTVSS | high polyreactivity |
| QVQLGESGGGLVQAGGSLRLSCAASGSIFGLYAMGWYRQAPGKERELVATITSGSSTTYADSVKGRFTISRDNAKNTVYLQMNSLKPEVTAVYYCGVDDLYGFDYWGQGTQVTVSS | low polyreactivity |
| QVQLVESGGGLVQAGRRLRLSCAASGRIFSRNAMGWYRQAPGKERELVAVITKRGGSTYYADSVKGRFTISRDNAKNTVYLQMNSLKPEDSAVYYCNRRPYTGLGRLDYWGQGTQVTVSS | high polyreactivity |
| QVQHVESGGGLVQAGGSLRLSCAASGFTFSYNAMGWNRQAPGKERELVAAISATGDGNTYYADSVKGRFTISRDNAKNTVYLQMNSLNPEDTAVYFCNRLPQYALPYRHNGYWGQGTQVTVSS | low polyreactivity |
| QVQLVESGGGLVQAGGSLRLSCAASGSTLFAYAMGWYRQAPGKERELVAAITSGASTNYADSVKGRFTISRDNAKNTVYLQMNSLKPEDTAVYYCAKDVSGTNPDYDYWGQGTQVTVSS | low polyreactivity |
| QVQLVESGGGLVQAGGSLRLSCAASGFIFKHYAMGWYRPAPGKERELVAAITRSGGRTYYADSVKGRFTISRDYAKNTVYLQMNSLKPEDTAVYYCNVDGKKRHYRHYYLSAYDYWGQGTQVTVSS | high polyreactivity |
| QVQLVESGVGLVQAGGSLRLSCAASGNTFGKYAMGWYRQAPGTERELVATITRRGGSTYYADSVKGRFTISRDKAKNSVYLQMNSLKPEDTAVYYCNRAVTYVTYVYWGQGTQVTVSS | high polyreactivity |
| QVQLVESGGGLVQAGGSLRLSCAASGRIFDIYTMGWYRQAPGKERELVASITKRGGSTYYADSVKGRFTISRDNAKNTVYLQMKSLKPEDTAVYFCNVAGKQKPYYVTTRLDYWGQGTQVTVSS | high polyreactivity |
| QVQLVESGGGLDQAGGSLRLSCAASGITFYRYVKGWYRQAPGKEREYVAAINWSTGTTNYADSVKGRFTISRDNAKNTVYFQMNILKPEDTAVYYCNARYRLRYIYSLRYDYWGQGTHVTVSS | high polyreactivity |
| QVQLVESGGGLVQAGGSIRLSCAASGRIFGSYVRGWYRQGPGKESELVAAISRRGGSTYYADSVTWRFTISRDNAKNTVYLQMNSLTPEDTAVYYCAAEFSPSSNPYDYWGQGTQVTVSS | high polyreactivity |
| QVQLVESGGGIVQAGGSLRLSCAASGSIYRYNTMGWYRQEPRKERELVATITRRGGSTYYADSVQGRFTISRDNAKNTVYLQMNSLKPEDTAVYYCNADYFGGPYNYWGQGTQVTVSS | low polyreactivity |
| QVQIVESGGGLVQAGGSLRLSCAASGGTFLPYAMGSYRQAPGKERELVATITLIGDSTYYADSVKGRFTISRDNAKNTVYLQMNSLKPEDTAVYYCAARPVTSYAYGSWGQGSQVTVSS | low polyreactivity |
| QVQHVESGICLVQAGGSLRLSCAASGGTVTPYAMGWYRQAPGKERELVAAISRYGARTYYADSVKGRFTISRDNANNNVFLEMNSLKPEVSAVYYCAARWYARTYVRGGMVYWRQGTQVTVSS | high polyreactivity |
| QVQLVESGGGLVQAGGSLRLSCAASGSTFYYYAMGWYRQAPGKERELVAAISSGGSTYADSVKGRFTISRDNAKNTVYLQMNSLKPEDTAVYWGQGTQVTVSS | low polyreactivity |
| QVQLVESGGGLVQAGCSLRLSCSASGRIFGYYAKGWYRQAPGKERELVARISGRGGSTYYADSVKVRFSISRDNAQKTVILQMNSLNPEDTAVYYCNVVLSFWKYYAYDQGDYWGQGTQVTVSS | low polyreactivity |
| QVQLVESGGGLVQAGGSLRLSCAASGRIFGYYAMGWYRQAPGKERELVAAISYIGGRTYYADSVKGRFTISRDNAKNTGYLQMNSLKPEDTAVYYCDADRDGADVDYWGQGTQVTVSS | high polyreactivity |
| QVQLVESGGGLVQAGGSLRLSCAASGSTSHYNAMGWYRQAPGKERELVASITWSGGSTYYADSVKGRFTISRDNAKNTVYLQMYSLKPEDTAVYYCNAQERRVRDYDYWGQGTQVTVSS | low polyreactivity |

| Sequence | polyreactivity (PSR sort gate) |
| --- | --- |
| QVQLVESGGGLVQAGGSLRLSCAASGRIFAVNTMGWYRQAPGKEREFVAAISDSGGGTYYADSVKGRFTISRDNAKKTVYLQMNSLKPEDTAVYYCNAKGQRSPYSKLEYWGQGTQVTVSS | high polyreactivity |
| QVQLVESGGGLVQAGGSLRLTCAASGSIFTKYAMGWYRQAPGKERELVAGISSSGCSTYYADSVKGRFTISRDYAKNTVYLQMNSLKPEDTAVYYCAARGYYKYDYWGQGTQVTVSS | high polyreactivity |
| QVQLVESGGGLVQAGGSLRLTCAASGRIIIGYVMGWYRQAPGKERELVATISYSGGSTYADSVKGRFTISRDNAKNTVYLQMNSLKPEDTAVYYCAARPYYRYYRYPYGYWGQGTQVTVSS | high polyreactivity |
| QVQLVESGGGLVQAGGSLRLSCAASGSIFKWNDMGWYRQSPGKERELVAAITWSGGRTYYADSVKGRFTISRDNAKNTVYLQMNSLKPEDTAVYYCAATQYRSDGWRYDYWGQGTQVTVSS | high polyreactivity |
| QVQLVESGGGLVQAGGSLRLSCAASGFTFDYYAMGWYRQAPGKERELVASITFIGGNTNYADSVKGRFTISRDNAKNTVYLQMNSLKPEDTAVYYCAADFPWDYRYWFEYWGQGTQVTVSS | low polyreactivity |
| QVQLVESGGGLVQAGGSLRLSCAASGRTFGQYVMGWYRQAPGKERELVAAIRSGGSTYYADSVKGRFTISRDNAKNTVYLQMNSLKPEDTAVYYCAKETYYGTDNFGQVGGEMDYWGQGTQVTVSS | low polyreactivity |
| QVQLVESGGGLVQAGGSLRLSCAASGRTFYRNAMGWSRQAPGKEREFVAVISVSGGSTYYADSVKGRFTISRDNAKNTVYLQMISLKPEDTAVYYCAKRGPVRQTANDYWGPGTQVTVSS | low polyreactivity |
| QVQLVESGGGLVQAGGSLRLSCAASGSTFVYYAMGWYRKAPGKERELVAAITSSGGSTHYADSVKGRFTISRDNAKNTVYLQMNSLKPEDTAVYYCAVGALGVYGHYGYWGQGTQVTVSS | low polyreactivity |
| QVQLVESGGGLVQAGGSLRLSCAASGFIFVVYTMGGYRQEPGKVRELVAAITSGGSTYYADSVKGRFTISRDNAKNTVYLQMNSLKPEDTAVYYCNALASRYQAYYYWGQGTQVTVSS | low polyreactivity |
| QVQLVESGGGLVQAGGSLRLSCAASGFTLGVYTMGGSRQAPGKVRELVARITSGGRTYSADSVKGRFTISRDNAKNSVYLQMNSLQPEDTAVYYCAKVDGRRTYYTVHRYERDYWGQGTQVTVSS | low polyreactivity |
| QVQLVESGGGLDQAGGSLRLSCAASGRIFTVYAMGGYRQAPGKERELVAAISGRGGRTYYADSVKGRFTISRDIAKNTVYLQMNSLKPEDTAVYYCNADTLTLTRPDGDIHTVWMDYWGQGTQVTVSS | low polyreactivity |
| QVQLVESGGGLVQAGGSLRLSCAASGRIFSWYDMGWDRQAPGKERELVAAISSGGSTIYADSVKGRFTISRDNAKQTVYLQMNSLKPEDTAVSYCNKSPSWWRYKTGLDYWGQGTQVTVSS | high polyreactivity |
| QVQLVESGGGLVQAGVSLRLSCAASGFIFEPSAMGWYRQAPGKERELVAAISSGGSTNADSVKGRFTISRDNAKNTVYLQMNSLKPEDTAVYYCAADSYYSVWGFYYWGQGTQVTVSS | low polyreactivity |
| QVQLVESGGGLVQAGGSLRLTCAASGSTFRVNVMGWYRQAPGTERELVAAITTSGGSTYYADSVKGRFTISRDNAKNTVYLQMNSLKPEDTAVYYCKTTYPSGWGPDMDYWGQGTQVTVSS | low polyreactivity |
| QVQLVESGGGLVQAGGSLRLSCAASGSTFSRYTMGWYRQAPGKERELVAAITWSGGRTYYADSVKGRFTISRDNAKNTVYLQMNSLKPEDTAVSYCNVDSSRYSGYDYWGQGTQVTVSS | high polyreactivity |
| QVQLVESGGGLVQAGGSLRLSCAASGSIFPLSAMGWYRQAPGKERELVAAITWRGGSTYYADSVKGRFTISRDNAKNTVYLQMNSLKPEDTAVYYCNRDLVPRFDYWGQGTQVTVSS | low polyreactivity |
| QVQLVESGGGLVQAGGSLRLSCAASGRTFYSNAMGWYRQAPGKERELVASISYGGGTTHYADSVKGRFTISRDNAKNTVYLQINSVKPEDTAVYYCAADPEHQWESVTIGEYDYWGQGTQVTVSS | low polyreactivity |
| QVQLVESGGGLVQAGGSLRLSCAASGRTFSYNAMGWYRQAPGKERELVAAITSSGGGTSYADSVKGRFTISRDNAKNTVYLQMNSLKPEDTAVYYCNRVLPHPDGYGVGARGYWGQGTQVSVSS | high polyreactivity |
| QVQIVESGGGLVQAGGSLRLSCASSGSTMPAYTMGWYRQAPGKERELVADISRRGGSTYYADSVKGRFTISRDNAKNNVYLHMNSLKPEDTPVYYCATTAKKSYDYWGQGTHVTVSS | high polyreactivity |
| QVQLVESGGGLVQAGGSLRLSCAASGSTFTPYAIGWYRQAPGKERELVAAIRRGGSTNYADSVKGRFTISRDNAKNTVYLQMNSLKPEDTAVYYCAATKRRFVKFDYWGQGTQVTVSS | low polyreactivity |
| QVQLEESGGGLVQAGGSLRLTCAASGSTVDKNDMGWYRPEPGQESELVAASTSSGSSTYYADSVKGRFTISRDNAKNTVYLQMNSLKPEDTAVYYCAADKYYYDRLSPSGDYLGQGTQVTVSS | low polyreactivity |

— the nanobody polyreactivity screen of Harvey et al. (2022)
